Among the data in patent US20250019422A1 (MAX PLANCK GESELLSCHAFT ZUR F RDERUNG DER WISSENSCHAFTEN E V, published 2025) are Kd values, retold here.

Test [1] concerns the target T1, wt_RBD-AviHis (SARS-CoV-2 (original Wuhan strain)). The experiment in a line: BLI (Octet), biotinylated RBD on streptavidin biosensors, VHH in solution.
Test [2] concerns the target T1, wt_RBD-AviHis. The experiment in a line: BLI: biotinylated wild type RBD immobilised, VHH in solution, mass transport fit. In general terms: In BLI a coated tip is dipped into the sample, and binding shifts an interference pattern.
For test [3], the target named is T1, wt_RBD-AviHis. Described as above. This is another data set of the same source.

B1: Re9B09 (VHH)
VHH: QVQLVESGGGLVQPGGSLRLSCAASGFTLDYYAIGWFRQAPGKEREGVSRISSSDGSTDYADSVKGRFTISRDNAKNTVYLQMNSLKPEDTAVYYCATVPGTYYSGNWYYTWHPEAVDYWGKGTQVTVSS
notes: also called ReB09
As for B1, the Kd was no more than 10 pM in the test with wt_RBD-AviHis [1] and 30 pM in the test with wt_RBD-AviHis [2].

B2: Re6H06 (VHH)
VHH: QVQLVESGGGLVQPGGSLRLSCAASGVTLDYYAIGWFRQAPGKEREGVSCTSSSDGSTYYADSVKGRFTISRDNAKNTVYLQMNSLKPEDTGVYYCAVVPQTYYGGKYYSQCTANGMDYWGKGTLVTVSS
Turning to B2, the Kd with wt_RBD-AviHis [1] and with wt_RBD-AviHis [3] was no more than 10 pM each time.

B3: Re5D06R15 (VHH)
VHH: QVQLVESGGGLVQPGGSLRLSCAASGITLDYYAMGWFREAPGKEREGVARIRNSDGSTNYADSVKGRFTMSRDNAKDTYYLQMNSLEPEDTADYYCAYGPLTKYGSSWYWPYEYDYWGQGTQVTVSS
In the test with wt_RBD-AviHis [1], B3 gave a Kd of no more than 10 pM.

B4: Re5D06 (VHH)
VHH: QVQLVESGGGLVQPGGSLRLSCAASGITLDYYAIGWFRQAPGKEREGVSRIRSSDGSTNYADSVKGRFTMSRDNAKNTVYLQMNSLKPEDTAVYYCAYGPLTKYGSSWYWPYEYDYWGQGTQVTVSS
B4: in the test with wt_RBD-AviHis [3], the Kd is no more than 10 pM.

B5: Re32F02 (VHH)
VHH: QVQLVESGGGLVSPGGSLKLSCAASGLTLDYYGIGWFRQVPGKEREGVSCLGVPDNRTLYAPSVKGRFTISRDNAKNTYYLEMNSLNPEDSAVYYCAAGPVVPGHMCRIPTPLGYDYWGQGTLVTVSS
Take B5: in the test with wt_RBD-AviHis [1], the Kd was no more than 10 pM.

B6: Re32C08 (VHH)
VHH: QVQLVESGGGLVQPGGSLRLSCETSGITLDYYAIGWFLQAPGKEREGVACMRNWDGSTVYAPSVKGRFTISRDNDKKAAYLEMNSLKSEDTGVYYCAAGPLPPGHSCRIPTPLGYDDWGQGTQVTVSS
B6 yielded a Kd with wt_RBD-AviHis [1] of no more than 10 pM.

B7: Re32E06 (VHH)
VHH: QVQLVESGGGLVQPGGSLRLSCETSGITLDYYAIGWFLQAPGKEREGVACMRNWDGSTLYAPSVKGRFTISRDNDKKAVYLEMNSLKSEDTGVYYCAAGPLPPGHSCRIPTPLGYDDWGQGTQVTVSS
In the test with wt_RBD-AviHis [1], B7 gave a Kd of no more than 10 pM.

B8: Re32G01 (VHH)
VHH: QVQLVESGGGLVQPGGSLRLSCETSGITLDYYAIGWFLQAPGKDREGVACMRNWDGSTLYAPSVKGRFTISRDADKEVAYLEMNSLKSEDTGVYYCAAGPLPPGHSCRIPTPLGYDDWGQGTQVTVSS
The molecule B8 had a Kd with wt_RBD-AviHis [1] of 16 pM.

B9: Re32B02 (VHH)
VHH: QVQLVESGGGLVQPGGSLRLSCATSGITLDYYAIGWFLQAPGKEREGVSCMRSSDGSTVYAPSVKGRFTISRDNAKKMVYLEMNSLKSEDTGVYYCAAGPLPPGTSCRIPTPLGYDDWGQGTQVTVSS
Take B9: the Kd with wt_RBD-AviHis [1] is no more than 10 pM.

B10: Ma6F06 (VHH)
VHH: QVQLVESGGGLVQPGGSLRLSCATSGITLDYYAIGWFLQVPGKEREGVACMRNWDGSTLYAPSVKGRFTISRDADKEVAYLEMNSLKSEDTGVYYCAAGPLPPGHSCRIPTPLGYDDWGQGTQVTVSS
B10: the Kd with wt_RBD-AviHis [1] is no more than 10 pM.

B11: Re32A10 (VHH)
VHH: QVQLVESGGGLVQPGGSLRLSCATSGITLDYYAIGWFLQAPGKEREGVSCMRSSDGSTVYAPSVKGRFTISRDNAKKMVYLEMNSLKSEDTGVYYCAAGPLPPGTSCRIPTPLGYDDWGQGTQVTVSS
The molecule B11 had a Kd with wt_RBD-AviHis [1] of 4 pM.

B12: Ma2E06 (VHH)
VHH: QVQLVESGGDLVQPRGSLRLSCAASGITLDYYAIGWFRQAPGKEREGVSYISNTNDKTDYADSVKGRFTISRDNAENTVFLQMNSLQPEDTAVYYCATVPGTYYGGRWYYTWHPEAVRYWGKGTQVTVSS
notes: also called Ma02E06
Consider B12, for which, in the test with wt_RBD-AviHis [1], the Kd worked out at 40 pM.

B13: Re31A12 (VHH)
VHH: QVQLVESGGGLVQSGGSLRLSCLTSGVTLDYYAIGWFRQAPGKEREGVSCTSSSDGSTNYSDSVKGRFIISRDNAKNTVYLQMNSLKPEDTAVYYCAVTPATYYGGRYYFQCPYHDMHYWGKGTLVTVSS
B13 returned a Kd in the test with wt_RBD-AviHis [1] of 120 pM.

B14: Re31A08 (VHH)
VHH: QVQLVESGGGLVQPGGSLRLSCAASGITLDYYSIGWFRQAPGKEREGVSCTSSRDDSTDYADSVKGRFTISRDNAKNSVYLQMNSLNPEDTAVYYCALTPATYYSGRYYFQCPPHGMDYWGKGTLVTVSS
With B14, the Kd in the test with wt_RBD-AviHis [1] came to 60 pM.

B15: Re32D03 (VHH)
VHH: QVQLVESGGGLVQPGGSLRLSCAISGITLDYYAVGWFLQAPGKEREGISCMRNWDGRTVYAPSVKGRFTISSDNAKKMVYLEMDNLKSEDTGVYYCAAGPLPPGISCRIPTPLGYDDWGQGTQVTVSS
As to B15, the Kd with wt_RBD-AviHis [1] and in the test with wt_RBD-AviHis [2] was no more than 10 pM in each case.

The term Kd denotes a measure of binding affinity in units of concentration.
